Laboratory results from patent publication US20120172293A1 (Takeda / Millennium, published 2012).
Non-standard residues stand in square brackets, D forms with d. *: point of attachment. βHOAla = beta-homoalanine (β-HOAla), D- or L-form; 4Pal = N[C@@H](Cc1ccncc1)C(=O)O; Cha = N[C@@H](CC1CCCCC1)C(=O)O; Cit = NC(=O)NCCC[C@H](N)C(=O)O; Isonicotinoyl = O=C(c1ccncc1)*; Aipe = 3-aminobutanoic acid; dIva = CC[C@@](C)(N)C(=O)O; Iva = CC[C@](C)(N)C(=O)O; Nle = CCCC[C@H](N)C(=O)O; Aib = CC(C)(N)C(=O)O; βAla = NCCC(=O)O

B1: 4-Pyridinecarbonyl-[Glu23, D-Pro24, Nle25, Pya(4)26, Cha27,36, Aib28,31, Lys30]-PYY(23-36) (peptide)
peptide: Isonicotinoyl-E[dP][Nle][4Pal][Cha][Aib]NK[Aib]TRQR[Cha]-NH2
SMILES: CCCC[C@H](NC(=O)[C@H]1CCCN1C(=O)[C@H](CCC(=O)O)NC(=O)c1ccncc1)C(=O)N[C@@H](Cc1ccncc1)C(=O)N[C@@H](CC1CCCCC1)C(=O)NC(C)(C)C(=O)N[C@@H](CC(N)=O)C(=O)N[C@@H](CCCCN)C(=O)NC(C)(C)C(=O)N[C@H](C(=O)N[C@@H](CCCNC(=N)N)C(=O)N[C@@H](CCC(N)=O)C(=O)N[C@@H](CCCNC(=N)N)C(=O)N[C@@H](CC1CCCCC1)C(N)=O)[C@@H](C)O
B2: Ac-[Iva24, Pya(4)26, Cha27,36, Aib28,31, Lys30]-PYY(23-36) (peptide)
peptide: Ac-S[Iva]R[4Pal][Cha][Aib]NK[Aib]TRQR[Cha]-NH2
SMILES: CC[C@](C)(NC(=O)[C@H](CO)NC(C)=O)C(=O)N[C@@H](CCCNC(=N)N)C(=O)N[C@@H](Cc1ccncc1)C(=O)N[C@@H](CC1CCCCC1)C(=O)NC(C)(C)C(=O)N[C@@H](CC(N)=O)C(=O)N[C@@H](CCCCN)C(=O)NC(C)(C)C(=O)N[C@H](C(=O)N[C@@H](CCCNC(=N)N)C(=O)N[C@@H](CCC(N)=O)C(=O)N[C@@H](CCCNC(=N)N)C(=O)N[C@@H](CC1CCCCC1)C(N)=O)[C@@H](C)O
B3: Ac-[D-Pro24, Iva25, Pya(4)26, Cha27,36, Aib28,31, Lys30]-PYY(23-36) (peptide)
peptide: Ac-S[dP][Iva][4Pal][Cha][Aib]NK[Aib]TRQR[Cha]-NH2
SMILES: CC[C@](C)(NC(=O)[C@H]1CCCN1C(=O)[C@H](CO)NC(C)=O)C(=O)N[C@@H](Cc1ccncc1)C(=O)N[C@@H](CC1CCCCC1)C(=O)NC(C)(C)C(=O)N[C@@H](CC(N)=O)C(=O)N[C@@H](CCCCN)C(=O)NC(C)(C)C(=O)N[C@H](C(=O)N[C@@H](CCCNC(=N)N)C(=O)N[C@@H](CCC(N)=O)C(=O)N[C@@H](CCCNC(=N)N)C(=O)N[C@@H](CC1CCCCC1)C(N)=O)[C@@H](C)O
B4: Ac-[Glu23, βAla24, Pya(4)26, Cha27,36, Aib28,31, Lys30]-PYY(23-36) (peptide)
peptide: Ac-E[βAla]R[4Pal][Cha][Aib]NK[Aib]TRQR[Cha]-NH2
SMILES: CC(=O)N[C@@H](CCC(=O)O)C(=O)NCCC(=O)N[C@@H](CCCNC(=N)N)C(=O)N[C@@H](Cc1ccncc1)C(=O)N[C@@H](CC1CCCCC1)C(=O)NC(C)(C)C(=O)N[C@@H](CC(N)=O)C(=O)N[C@@H](CCCCN)C(=O)NC(C)(C)C(=O)N[C@H](C(=O)N[C@@H](CCCNC(=N)N)C(=O)N[C@@H](CCC(N)=O)C(=O)N[C@@H](CCCNC(=N)N)C(=O)N[C@@H](CC1CCCCC1)C(N)=O)[C@@H](C)O
B5: Ac-[D-Pro24, Cit25, Cha27,36, Aib28,31, Lys30]-PYY(23-36) (peptide)
peptide: Ac-S[dP][Cit]H[Cha][Aib]NK[Aib]TRQR[Cha]-NH2
SMILES: CC(=O)N[C@@H](CO)C(=O)N1CCC[C@@H]1C(=O)N[C@@H](CCCNC(N)=O)C(=O)N[C@@H](Cc1c[nH]cn1)C(=O)N[C@@H](CC1CCCCC1)C(=O)NC(C)(C)C(=O)N[C@@H](CC(N)=O)C(=O)N[C@@H](CCCCN)C(=O)NC(C)(C)C(=O)N[C@H](C(=O)N[C@@H](CCCNC(=N)N)C(=O)N[C@@H](CCC(N)=O)C(=O)N[C@@H](CCCNC(=N)N)C(=O)N[C@@H](CC1CCCCC1)C(N)=O)[C@@H](C)O
B6: Ac-[Aipe24, Pya(4)26, Cha27,36, Aib28,31, Lys30]-PYY(23-36) (peptide)
peptide: Ac-S[Aipe]R[4Pal][Cha][Aib]NK[Aib]TRQR[Cha]-NH2
B7: Ac-[β-HOAla24, Pya(4)26, Cha27,36, Aib28,31, Lys30]-PYY(23-36) former peak (peptide)
peptide: Ac-S[βHOAla]R[4Pal][Cha][Aib]NK[Aib]TRQR[Cha]-NH2
modifications: also: former peak isomer, β-HOAla configuration D or L not assigned
B8: Ac-[βAla24, Pya(4)26, Cha27,36, Aib28,31, Lys30]-PYY(23-36) (peptide)
peptide: Ac-S[βAla]R[4Pal][Cha][Aib]NK[Aib]TRQR[Cha]-NH2
SMILES: CC(=O)N[C@@H](CO)C(=O)NCCC(=O)N[C@@H](CCCNC(=N)N)C(=O)N[C@@H](Cc1ccncc1)C(=O)N[C@@H](CC1CCCCC1)C(=O)NC(C)(C)C(=O)N[C@@H](CC(N)=O)C(=O)N[C@@H](CCCCN)C(=O)NC(C)(C)C(=O)N[C@H](C(=O)N[C@@H](CCCNC(=N)N)C(=O)N[C@@H](CCC(N)=O)C(=O)N[C@@H](CCCNC(=N)N)C(=O)N[C@@H](CC1CCCCC1)C(N)=O)[C@@H](C)O
B9: Ac-[β-HOAla24, Pya(4)26, Cha27,36, Aib28,31, Lys30]-PYY(23-36) later peak (peptide)
peptide: Ac-S[βHOAla]R[4Pal][Cha][Aib]NK[Aib]TRQR[Cha]-NH2
modifications: also: later peak isomer, β-HOAla configuration D or L not assigned
B10: Ac-[D-Pro24, Aib25,28,31, Pya(4)26, Cha27,36, Lys30]-PYY(23-36) (peptide)
peptide: Ac-S[dP][Aib][4Pal][Cha][Aib]NK[Aib]TRQR[Cha]-NH2
SMILES: CC(=O)N[C@@H](CO)C(=O)N1CCC[C@@H]1C(=O)NC(C)(C)C(=O)N[C@@H](Cc1ccncc1)C(=O)N[C@@H](CC1CCCCC1)C(=O)NC(C)(C)C(=O)N[C@@H](CC(N)=O)C(=O)N[C@@H](CCCCN)C(=O)NC(C)(C)C(=O)N[C@H](C(=O)N[C@@H](CCCNC(=N)N)C(=O)N[C@@H](CCC(N)=O)C(=O)N[C@@H](CCCNC(=N)N)C(=O)N[C@@H](CC1CCCCC1)C(N)=O)[C@@H](C)O
B11: Ac-[Glu23, D-Pro24, Nle25, Pya(4)26, Cha27,36, Aib28,31, Lys30]-PYY(23-36) (peptide)
peptide: Ac-E[dP][Nle][4Pal][Cha][Aib]NK[Aib]TRQR[Cha]-NH2
SMILES: CCCC[C@H](NC(=O)[C@H]1CCCN1C(=O)[C@H](CCC(=O)O)NC(C)=O)C(=O)N[C@@H](Cc1ccncc1)C(=O)N[C@@H](CC1CCCCC1)C(=O)NC(C)(C)C(=O)N[C@@H](CC(N)=O)C(=O)N[C@@H](CCCCN)C(=O)NC(C)(C)C(=O)N[C@H](C(=O)N[C@@H](CCCNC(=N)N)C(=O)N[C@@H](CCC(N)=O)C(=O)N[C@@H](CCCNC(=N)N)C(=O)N[C@@H](CC1CCCCC1)C(N)=O)[C@@H](C)O
B12: Ac-[Aib24,28,31, Pya(4)26, Cha27,36, Lys30]-PYY(23-36) (peptide)
peptide: Ac-S[Aib]R[4Pal][Cha][Aib]NK[Aib]TRQR[Cha]-NH2
SMILES: CC(=O)N[C@@H](CO)C(=O)NC(C)(C)C(=O)N[C@@H](CCCNC(=N)N)C(=O)N[C@@H](Cc1ccncc1)C(=O)N[C@@H](CC1CCCCC1)C(=O)NC(C)(C)C(=O)N[C@@H](CC(N)=O)C(=O)N[C@@H](CCCCN)C(=O)NC(C)(C)C(=O)N[C@H](C(=O)N[C@@H](CCCNC(=N)N)C(=O)N[C@@H](CCC(N)=O)C(=O)N[C@@H](CCCNC(=N)N)C(=O)N[C@@H](CC1CCCCC1)C(N)=O)[C@@H](C)O
B13: Ac-[D-Pro24, Nle25, Pya(4)26, Cha27,36, Aib28,31, Lys30]-PYY(23-36) (peptide)
peptide: Ac-S[dP][Nle][4Pal][Cha][Aib]NK[Aib]TRQR[Cha]-NH2
SMILES: CCCC[C@H](NC(=O)[C@H]1CCCN1C(=O)[C@H](CO)NC(C)=O)C(=O)N[C@@H](Cc1ccncc1)C(=O)N[C@@H](CC1CCCCC1)C(=O)NC(C)(C)C(=O)N[C@@H](CC(N)=O)C(=O)N[C@@H](CCCCN)C(=O)NC(C)(C)C(=O)N[C@H](C(=O)N[C@@H](CCCNC(=N)N)C(=O)N[C@@H](CCC(N)=O)C(=O)N[C@@H](CCCNC(=N)N)C(=O)N[C@@H](CC1CCCCC1)C(N)=O)[C@@H](C)O
B14: Ac-[D-Pro24, Aib25,28,31, Cha27,36, Lys30]-PYY(23-36) (peptide)
peptide: Ac-S[dP][Aib]H[Cha][Aib]NK[Aib]TRQR[Cha]-NH2
SMILES: CC(=O)N[C@@H](CO)C(=O)N1CCC[C@@H]1C(=O)NC(C)(C)C(=O)N[C@@H](Cc1c[nH]cn1)C(=O)N[C@@H](CC1CCCCC1)C(=O)NC(C)(C)C(=O)N[C@@H](CC(N)=O)C(=O)N[C@@H](CCCCN)C(=O)NC(C)(C)C(=O)N[C@H](C(=O)N[C@@H](CCCNC(=N)N)C(=O)N[C@@H](CCC(N)=O)C(=O)N[C@@H](CCCNC(=N)N)C(=O)N[C@@H](CC1CCCCC1)C(N)=O)[C@@H](C)O
B15: Ac-[D-Pro24, Iva25, Cha27,36, Aib28,31, Lys30]-PYY(23-36) (peptide)
peptide: Ac-S[dP][Iva]H[Cha][Aib]NK[Aib]TRQR[Cha]-NH2
SMILES: CC[C@](C)(NC(=O)[C@H]1CCCN1C(=O)[C@H](CO)NC(C)=O)C(=O)N[C@@H](Cc1c[nH]cn1)C(=O)N[C@@H](CC1CCCCC1)C(=O)NC(C)(C)C(=O)N[C@@H](CC(N)=O)C(=O)N[C@@H](CCCCN)C(=O)NC(C)(C)C(=O)N[C@H](C(=O)N[C@@H](CCCNC(=N)N)C(=O)N[C@@H](CCC(N)=O)C(=O)N[C@@H](CCCNC(=N)N)C(=O)N[C@@H](CC1CCCCC1)C(N)=O)[C@@H](C)O
B16: Ac-[D-Iva24, Pya(4)26, Cha27,36, Aib28,31, Lys30]-PYY(23-36) (peptide)
peptide: Ac-S[dIva]R[4Pal][Cha][Aib]NK[Aib]TRQR[Cha]-NH2
SMILES: CC[C@@](C)(NC(=O)[C@H](CO)NC(C)=O)C(=O)N[C@@H](CCCNC(=N)N)C(=O)N[C@@H](Cc1ccncc1)C(=O)N[C@@H](CC1CCCCC1)C(=O)NC(C)(C)C(=O)N[C@@H](CC(N)=O)C(=O)N[C@@H](CCCCN)C(=O)NC(C)(C)C(=O)N[C@H](C(=O)N[C@@H](CCCNC(=N)N)C(=O)N[C@@H](CCC(N)=O)C(=O)N[C@@H](CCCNC(=N)N)C(=O)N[C@@H](CC1CCCCC1)C(N)=O)[C@@H](C)O

What follows are binders tested against human Y2 receptor (human) (UniProt P49146) (assay: RBA: displacement of [125I]-PYY from hY2R/CHO membranes).
Chain of human Y2 receptor (human) (P49146 whole entry): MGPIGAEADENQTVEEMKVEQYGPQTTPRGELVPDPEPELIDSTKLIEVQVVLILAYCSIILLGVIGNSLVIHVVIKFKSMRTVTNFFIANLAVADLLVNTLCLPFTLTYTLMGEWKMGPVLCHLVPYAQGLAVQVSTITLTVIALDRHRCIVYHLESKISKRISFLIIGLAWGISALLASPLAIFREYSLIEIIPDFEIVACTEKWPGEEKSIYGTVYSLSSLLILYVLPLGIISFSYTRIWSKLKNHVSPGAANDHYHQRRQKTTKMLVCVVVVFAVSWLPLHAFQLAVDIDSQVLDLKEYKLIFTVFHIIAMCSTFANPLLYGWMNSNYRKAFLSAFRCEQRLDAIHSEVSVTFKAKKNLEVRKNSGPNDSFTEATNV

IC50 Ratio (IC50 compound/IC50 PYY(3-36))	Binder
8.1	B1
0.58	B2
2.9	B3
7.4	B4
6.2	B5
1.3	B6
2.4	B7
1.9	B8
0.85	B9
8.4	B10
7.5	B11
0.81	B12
3	B13
24	B14
8.8	B15
0.39	B16

These binders were tested against human Y2 receptor (human) (UniProt P49146) (assay: cell-based or functional assay).

GBA EC50 Ratio ([35S]GTPγS binding) (EC50 compound/EC50 PYY(3-36))	Binder
5.7	B1
0.91	B2
2.9	B3
3.9	B4
4.6	B5
2	B6
2.8	B7
1.1	B8
1.9	B9
1.7	B10
6.9	B11
1.1	B12
2.4	B13
11	B14
5.2	B15
1.3	B16
